According to patent US20220177583A1 (University of California, published 2022):

T1: human CLDN6, endogenously expressed on cancer cell lines (human, UniProt P56747 1-220)
T1 construct: also called Endogenous CLDN6+; CLDN6 on ARK2, OVCA429, UMUC4 cells
T1 sequence: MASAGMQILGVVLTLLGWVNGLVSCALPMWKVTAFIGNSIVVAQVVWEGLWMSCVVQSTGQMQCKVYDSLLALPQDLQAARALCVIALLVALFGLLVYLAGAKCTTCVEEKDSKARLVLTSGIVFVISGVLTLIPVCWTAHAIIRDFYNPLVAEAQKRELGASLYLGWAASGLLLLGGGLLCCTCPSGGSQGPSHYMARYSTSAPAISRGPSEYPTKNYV

T2: mouse CLDN6 fused to GFP, expressed on engineered HEK293T cells (mouse, UniProt Q9Z262 1-219)
T2 construct: whole, on cells; also called HEK293T-CLDN6-mGFP Artificial CLDN6+ (mouse); murine CLDN6; not shown: GFP tag
T2 sequence (looked up): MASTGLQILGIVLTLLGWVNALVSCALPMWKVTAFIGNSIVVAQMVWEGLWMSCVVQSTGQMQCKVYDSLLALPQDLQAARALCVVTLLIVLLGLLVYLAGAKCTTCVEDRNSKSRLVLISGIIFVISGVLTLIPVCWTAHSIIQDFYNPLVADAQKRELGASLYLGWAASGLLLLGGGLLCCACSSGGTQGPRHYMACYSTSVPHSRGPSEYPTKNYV

T3: CLDN9-GFP expressed on engineered HEK293T cells (human, UniProt O95484 1-217)
T3 construct: whole, on cells; also called HEK293T CLDN9-mGFP; Artificial CLDN9+; not shown: GFP tag
T3 sequence (looked up): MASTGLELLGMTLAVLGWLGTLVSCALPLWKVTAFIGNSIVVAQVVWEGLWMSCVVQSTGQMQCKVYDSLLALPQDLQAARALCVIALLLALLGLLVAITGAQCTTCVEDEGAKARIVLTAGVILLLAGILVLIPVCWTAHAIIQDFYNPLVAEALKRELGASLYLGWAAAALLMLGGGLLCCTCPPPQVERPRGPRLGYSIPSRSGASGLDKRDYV


Legend:
[1] = biological target: T1, human CLDN6, endogenously expressed on …; assay: FACS dose curve, labelled mAb, ARK2 cells
[2] = biological target: T1, human CLDN6, endogenously expressed on …; assay: FACS dose curve, labelled mAb, OVCA429 cells
[3] = biological target: T2, mouse CLDN6 fused to GFP, expressed on …; assay: FACS dose curve, labelled mAb, HEK293T-CLDN6-mGFP (mouse) cells
[4] = biological target: T3, CLDN9-GFP expressed on engineered …; assay: FACS dose curve, labelled mAb, HEK293T CLDN9-mGFP cells
[5] = biological target: T1, human CLDN6, endogenously expressed on …; assay: flow cytometry on UMUC4 cells (Positive Cell Line), anti-human IgG Fc secondary antibody
[6] = biological target: T1, human CLDN6, endogenously expressed on …; assay: FACS, ARK2 cells, 0.3 ug Ab
[7] = biological target: T1, human CLDN6, endogenously expressed on …; assay: FACS, ARK2 cells, 1.5 ug Ab
[8] = biological target: T2, mouse CLDN6 fused to GFP, expressed on …; assay: FACS, 293T clone with mouse CLDN6

| Binder | EC50 [1] | EC50 [2] | EC50 [3] | also measured |
| --- | --- | --- | --- | --- |
| AB2 (antibody, V domains shown, Full-length IgG (ExpiCHO)) VH: EVKLEESGGGLVQPGGSMKLSCVASGFTFSDYWMNWVRQSPEKGLEWVAQIRLKSDNYATHYAESVKGRFTISRDDSKRSVYLQMNNLRAEDTGTYYCNDGPPSGCWGQGTTLIVSS VL: DIQMTQSPASLSASVGETVTITCRISENIYSYLAWYQQKQGKSPQLLVYNAKILVEGVPSRFSGSGSGTQFSLKINSLQPEDFGNYYCQHHYTVPWTFGGGTKLEIK | 1.36 µM | 0.912 µM | ≥ 5 µM | – |
| AB10 (antibody, V domains shown, Full-length IgG (ExpiCHO)) VH: QIQLVQSGPALKKPGETVKISCKASGYTFTDYSMHWIKQAPGKGLKWMGWISTETGEPTYADGFKGRFDFSLETSADTAYLSINNLTNEDTATYFCTRGLWSSFAYWGQGTLVTVSA VL: DVVMTQTPLSLPVSLGDQASISCRASQSLVHSNGNTYLHWFLQKPGQSPKLLIYKVSNRFSGVPDRFSGSGSRTDFTLKISRVEAEDLGVYFCSQITHVPYTFGGGTKLEIK | 2.14 µM | 2.47 µM | – | EC50 [4]: 0.246 µM |
| AB3-7 conjugated to CL2A-SN38 (D4 technology) (antibody, V domains shown, CL2A-SN38 conjugated to the antibody (D4); sites not stated, Antibody-drug conjugate of humanized AB3-7; also called CLDN6 ADC) VH: EVQLLESGGGLVQPGGSMRLSCAASGFTFSNYWMNWVRQAPGKGLEWVAQIRLKSDNYATHYADSVKGRFTISRDDSKNTVYLQMNSLRAEDTGVYYCNDGPPSGSWGQGTLLTVSS VL: DIQMTQSPSSLSASVGDRVTITCRISENIYSYLAWYQQKPGKAPKLLVYNAKILVEGVPSRFSGSGSGTDFTLTISSLQPEDFGTYYCQHHYTVPWTFGQGTKLEIK | – | – | – | flow cytometry signal at 0.1µg Ab/Sample [5]: 9140; flow cytometry signal at 1µg Ab/Sample [5]: 34600 |
| AB3-7 (antibody, V domains shown, Humanized; also called humanized AB3-7; AB23) VH: EVQLLESGGGLVQPGGSMRLSCAASGFTFSNYWMNWVRQAPGKGLEWVAQIRLKSDNYATHYADSVKGRFTISRDDSKNTVYLQMNSLRAEDTGVYYCNDGPPSGSWGQGTLLTVSS VL: DIQMTQSPSSLSASVGDRVTITCRISENIYSYLAWYQQKPGKAPKLLVYNAKILVEGVPSRFSGSGSGTDFTLTISSLQPEDFGTYYCQHHYTVPWTFGQGTKLEIK | – | – | – | FACS signal [6]: 36000; FACS signal [7]: 90400; FACS signal [8]: 56100; flow cytometry signal at 0.1µg Ab/Sample [5]: 8820; flow cytometry signal at 1µg Ab/Sample [5]: 27300 |
| AB3-7 conjugated to MC-VC-PAB-DXD (antibody, V domains shown, MC-VC-PAB-DXD conjugated to the antibody; sites not stated, Antibody-drug conjugate of humanized AB3-7; also called CLDN6 ADC) VH: EVQLLESGGGLVQPGGSMRLSCAASGFTFSNYWMNWVRQAPGKGLEWVAQIRLKSDNYATHYADSVKGRFTISRDDSKNTVYLQMNSLRAEDTGVYYCNDGPPSGSWGQGTLLTVSS VL: DIQMTQSPSSLSASVGDRVTITCRISENIYSYLAWYQQKPGKAPKLLVYNAKILVEGVPSRFSGSGSGTDFTLTISSLQPEDFGTYYCQHHYTVPWTFGQGTKLEIK | – | – | – | flow cytometry signal at 0.1µg Ab/Sample [5]: 10800; flow cytometry signal at 1µg Ab/Sample [5]: 32600 |
| AB3-7 conjugated to MC-GGFG-DXD (antibody, V domains shown, MC-GGFG-DXD conjugated to the antibody; sites not stated, Antibody-drug conjugate of humanized AB3-7; also called CLDN6 ADC) VH: EVQLLESGGGLVQPGGSMRLSCAASGFTFSNYWMNWVRQAPGKGLEWVAQIRLKSDNYATHYADSVKGRFTISRDDSKNTVYLQMNSLRAEDTGVYYCNDGPPSGSWGQGTLLTVSS VL: DIQMTQSPSSLSASVGDRVTITCRISENIYSYLAWYQQKPGKAPKLLVYNAKILVEGVPSRFSGSGSGTDFTLTISSLQPEDFGTYYCQHHYTVPWTFGQGTKLEIK | – | – | – | flow cytometry signal at 0.1µg Ab/Sample [5]: 10500; flow cytometry signal at 1µg Ab/Sample [5]: 32800 |

The next lines start with results.

| EC50 [1] | EC50 [2] | EC50 [3] | Binder | also measured |
| --- | --- | --- | --- | --- |
| 1.35 µM | 2.44 µM | – | AB18 (antibody, V domains shown, Full-length IgG (ExpiCHO)) VH: QVQLKQSGPELEKPGASVKISCKASGYSFTGYNMNWVKQSNGKSLEWIGNIDPYYGGSTYNQKFTGKATLTVDKSSSTAYMQLKSLTSEDSAVYYCARERSGYVFSAMDYWGQGTSVTVSS VL: NIMMTQSPSSLAVSAGEKVTMSCKSSQSVLFSSNQKNYLAWYQQKPGQSPRLLIYWASTRESGVPDRFTGSGSGTDFTLTISNVQAEDLAVYYCHQYLSSRTFGAGTKLELK | – |
| 1.3 µM | 1.66 µM | – | AB14 (antibody, V domains shown, Full-length IgG (ExpiCHO)) VH: QVQLQQSGPELVRPGVSVKISCKGSGYTFTDYAMHWVKQSHAKSLEWIGVISTYSGNTNYNQKFQDKATMTVDKSSSTAYMALARLTSDDSAIYYCARRGDYSLYAMDYWGQGTSVTVSS VL: DIVLTQSPASLAVSLGQRATISCKASQSVDYDGDNYVNWYQQKVGQPPKLLISAASNLESGIPARFSGSGSGTDFTLNIHPVEEEDAATYYCQQSNEDPFTFGSGTKLEIK | – |
| 1.65 µM | 1.1 µM | 2.49 µM | AB3 (antibody, V domains shown, Full-length IgG (ExpiCHO)) VH: EVKLEESGGGLVQPGGSMKLSCVASGFTFSNYWMNWVRQSPEKGLEWVAQIRLKSDNYATHYAESVKGRFTISRDDSKRSVYLQMNNLRAEDTGTYYCNDGPPSGCWGQGTTLIVSS VL: DIQMTQSPASLSASVGETVTITCRISENIYSYLAWYQQKQGKSPQLLVYNAKILVEGVPSRFSGSGSGTQFSLKINSLQPEDFGNYYCQHHYTVPWTFGGGTKLEIK | – |
| 0.008 µM | 0.005 µM | 0.011 µM | AB5 (antibody, V domains shown, Full-length IgG (ExpiCHO)) VH: EVQLQQSGPELVKPGASVKMSCKASGYIFTHYIMHWVKQKPGQGLEWIGCINPYNDGTKYNEKFKGKATLTSDKSSSTAYMELSSLTSEDSAVYYCARYYGYPYYSMDYWGQGTSVTVSS VL: DVLMTQTPLSLPVSLGDQPSISCRSSQSIVHSNGNTYLDWYLQKPGQSPKLLIYKVSNRFSGVPDRFSGSGSGTDFTLKISRVEAEDLGVYYCFQGSHVPFTFGSGTRLEIK | EC50 [4]: 0.025 µM |
| 1.14 µM | 1.17 µM | – | AB9 (antibody, V domains shown, Full-length IgG (ExpiCHO)) VH: EVQLQQSGPELVKPGASVKMSCKASGYRFTDYNMHWVKQSHGKSLEWIGYINPNNGGTNYNQNFKGKATLTVNKSSSTAYMELRSLTSEDSAAYYCARDYLYFFDCWGQGTTLTVSS VL: DIQMTQSPASQSASLGESVTITCLASQTIGTWLAWYQQKPGKSPQLLIYAAASLADGVPSRFSGSGSGTRFSFKISSLQAEDFVSYYCQQLYSIPRTFGGGTKLEIK | – |
| 0.048 µM | 0.168 µM | ≥ 5 µM | AB4 (antibody, V domains shown, Full-length IgG (ExpiCHO)) VH: QVQLQQSGAELARPGASVKMSCKASGYTFTSYTMHWIKQRPGQGQEWIGYINPSSTYTHYIKKFKDKATLTADKSSSTAYMQLRSLTSEDSAVYYCSRGELGGFAYWGQGTLVTVSA VL: DVVMTQTPLSLPVSLGDQASISCRSSQSLVHSDGNTYLNWYLQKPGQSPKLLIYKVSNRFSGVPDRFSGSGSGTDFTLKIRRVEAEDLGVYFCSQSTHVPYTFGGGTKLEIK | EC50 [4]: 1.86 µM |
| 0.105 µM | 0.084 µM | 0.072 µM | AB1 (antibody, V domains shown, Full-length IgG (ExpiCHO)) VH: QVQLQQSAAELARPGASVKMSCKASGYTFTTYTMHWVKQRPGQGLEWIGFINPSSGYTDYNQKFKDRTTLTADKSSSTVYMQLSSLTSEDSAVYYCANGDYYVAYWGQGTLVTVSA VL: QIVLTQSPAIMSASLGERVTMTCTASSSVSSTYFHWYQQKPGSSPKLWIYSTSNLASGVPRRFSGSASGTSYSLTISSMEAEDAATYYCHQYHRSPLTFGAGTKLELK | EC50 [4]: 2.77 µM |
| 1.15 µM | 2.29 µM | – | AB13 (antibody, V domains shown, Full-length IgG (ExpiCHO)) VH: QVQLQQSGAELVRPGTSVKVSCKASGYAFSNYLIEWVKQRPGQGLEWIGVINPGSGGTNYNEKFKGKATMTADKSSSTAYMHLSNLTSEDSVVYFCARSYFGRSYPYTMDYWGQGTSVTVSS VL: EIVLTQSPTTMAASPGEKITITCSASSSISSNYLHWYQQKPGFSPKLLIYRTSNLASGVPARFSGSGSGTSYSLTIGTMEAEDVATYYCQQGSSIPLTFGAGTKLELK | – |
